According to publication PMC4446444, “Stable complex formation of CENP-B with the CENP-A nucleosome”:

T1: CENP-B DBD (Homo sapiens, UniProt P07199 1-129)
T1 sequence: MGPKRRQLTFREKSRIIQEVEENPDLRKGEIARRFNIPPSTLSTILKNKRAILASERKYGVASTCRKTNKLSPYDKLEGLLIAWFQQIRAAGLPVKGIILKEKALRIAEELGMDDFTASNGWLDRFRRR


Assays:
[1] = target: His6-tagged CENP-B DBD complexed with a 21 base-pair DNA (human) (UniProt P07199); assay: pull-down; His6-tagged CENP-B DBD with 21 base-pair CENP-B box DNA (50 nM) held on Ni-NTA agarose beads; histone complex 50 nM; 20 mM Tris-HCl pH 8.0, 300 mM NaCl, 60 mM imidazole, 0.3% Tween-20, BSA, 4 °C 60 min; washes with 500 mM NaCl, 30 mM imidazole; 16% SDS-PAGE with Coomassie
CENP-B DBD = target: T1, CENP-B DBD; assay: competition; naked competitor; DBD-DNA complex increases with DNA amount; Buffer of the EMSA and competition assays not in material (6% native PAGE, ethidium bromide); pull-down: 20 mM Tris-HCl pH 8.0, 300 mM NaCl, 60 mM imidazole, 0.3% Tween-20, 0.01 ug/ul BSA, 4 C, 60 min; conditions: protein: recombinant; blunt

Row | percent of H4 in the CENP-B-bound fraction against the CENP-A-H4 complex [1] | Molecule | binding result (CENP-B DBD)
1 | 4% | H3.1^CATD-H4 complex (from UniProt P68431 1-75; P49450 75-114; P68431 114-136; P62805 1-103) | 
2 |  | 166-bp alpha-satellite DNA, proximal CENP-B box (naked) (dsDNA) DNA 1: ATCTATTTGGACCGCATTGAGGCCTTCGTTGGAAACGGGATTTCTTCATTTCATGCTAGACAGAAGAATTCTCAGTAACTTCTTTGTGCTGTGTGTATTCAACTCACAGAGTGGAACGTCCCTTTGCACAGAGCAGATTTGAAACACTCTTTTTGTAGTCGACGAT DNA 2: ATCGTCGACTACAAAAAGAGTGTTTCAAATCTGCTCTGTGCAAAGGGACGTTCCACTCTGTGAGTTGAATACACACAGCACAAAGAAGTTACTGAGAATTCTTCTGTCTAGCATGAAATGAAGAAATCCCGTTTCCAACGAAGGCCTCAATGCGGTCCAAATAGAT | binds
